This is an account of results in patent US20200166530A1 (CASE WESTERN RESERVE UNIVERSITY, published 2020).

Ends that are not written are not given here.

The target of this experiment is T1, hERα^CDE, multidomain segment of human estrogen receptor alpha containing both DBD and LBD (residues … (human, UniProt P03372 181-552)).
T1 construct: Expressed in E. coli from the pMCSG7 vector; It functions as a homodimer; In the SPR assay it was injected as the complex with ERE-DNA and estradiol; also called hERα^CDE-DNA-E2 complex
T1 sequence: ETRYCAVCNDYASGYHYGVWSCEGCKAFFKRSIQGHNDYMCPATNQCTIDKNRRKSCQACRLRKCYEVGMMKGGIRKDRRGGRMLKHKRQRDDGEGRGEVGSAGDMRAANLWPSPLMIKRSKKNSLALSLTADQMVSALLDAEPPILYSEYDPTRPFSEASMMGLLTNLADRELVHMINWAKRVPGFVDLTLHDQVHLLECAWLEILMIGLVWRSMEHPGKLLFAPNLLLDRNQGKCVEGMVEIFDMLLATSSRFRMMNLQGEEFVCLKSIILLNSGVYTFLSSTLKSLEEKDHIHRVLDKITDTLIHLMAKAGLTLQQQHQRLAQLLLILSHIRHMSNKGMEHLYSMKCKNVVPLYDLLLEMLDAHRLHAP
Briefly: SPR (Biacore T100): biotinylated TIF2 peptide immobilised on an SA chip, hERα^CDE-DNA-E2 complex injected at 0-5 µM, 25° C [panel e]. On the procedure:
Measurements were conducted at 25° C. using a Biacore T100 system.
In general terms: In SPR one partner is held on a chip, and binding of the other changes the refractive index at the surface.

B1: coactivator TIF2 peptide (KENALLRYLLDKDD) (peptide)
peptide: KENALLRYLLDKDD
modifications: also: biotinylated (position not given here)
notes: For SPR the peptide was biotinylated and captured on an SA sensor chip at 10 RUs; also called biotinylated TIF2 peptide
As to B1, the binding result was “binds”.
